Test results from PMC11961692.
Substitutions are numbered along the chain they refer to. Like-named read-outs stand apart in the source and are kept apart here.

Assays:
hEndoU WT [1] = molecular target: T1, hEndoU WT (Homo sapiens, UniProt P21128 135-410); assay: NMR
T1 sequence: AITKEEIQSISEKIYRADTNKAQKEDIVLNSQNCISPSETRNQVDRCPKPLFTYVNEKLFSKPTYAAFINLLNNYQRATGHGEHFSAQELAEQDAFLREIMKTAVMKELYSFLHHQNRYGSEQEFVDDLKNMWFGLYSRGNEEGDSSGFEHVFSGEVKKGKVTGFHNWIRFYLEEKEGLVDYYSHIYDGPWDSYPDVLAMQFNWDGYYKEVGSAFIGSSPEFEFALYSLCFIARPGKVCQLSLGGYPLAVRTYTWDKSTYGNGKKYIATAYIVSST

hEndoU WT [2] = molecular target: T1, hEndoU WT; assay: NMR; remark: listed apart in the source
hEndoU H285A/R385K = molecular target: T2, hEndoU H285A/R385K (Homo sapiens, UniProt P21128 135-410, H285A;R385K); assay: EMSA
T2 sequence: T1 sequence with H151A, R251K

hEndoU E284A = molecular target: T3, hEndoU E284A (Homo sapiens, UniProt P21128 135-410, E284A); assay: EMSA
T3 sequence: T1 sequence with E150A

hEndoU H285A = molecular target: T4, hEndoU H285A (Homo sapiens, UniProt P21128 135-410, H285A); assay: EMSA
T4 sequence: T1 sequence with H151A

hEndoU H285A/R385A = molecular target: T5, hEndoU H285A/R385A (Homo sapiens, UniProt P21128 135-410, H285A;R385A); assay: EMSA
T5 sequence: T1 sequence with H151A, R251A

Binder: AAGUCC (XNA, 2'-F at all nucleotides) [2'-F RNA AAGUCC]
- binding result (hEndoU WT [1]): binds

Binder: UUUUUU (XNA, 2'-F at all nucleotides) [2'-F (U)6]
- binding result (hEndoU WT [2]): binds

Binder: CACGAGUACCAGAAAACCAAAA (ssRNA) [single-uridylate RNA]
- binding result (hEndoU H285A/R385K): binds
- binding result (hEndoU E284A): binds
- binding result (hEndoU H285A): binds
- binding result (hEndoU H285A/R385A): binds
